Where no end group is shown, it is not given here.
Tests used:
[1] = target: T1, tau peptide NVKSKIGSTENLKHQPG (SEQ ID NO:184) (human); test: peptide microarray, 3D6 at 10 ug/ml
T1 construct: Printed on a microarray together with all its single substitution variants; also called probe peptide
T1 peptide: NVKSKIGSTENLKHQPG
Method: The assay exchanged each of the amino acids in the peptide sequence with all 20 amino acids, to determine with a high degree of accuracy the core epitope for 3D6. The microarray was printed with all peptides in triplicate, along with HA control peptides to ensure assay performance. To perform the assay, the array was incubated with 3D6 (10 ug/ml) in blocking buffer, washed with PBS-T, followed by incubation with a goat anti-mouse secondary antibody conjugated to DyLight-680. In addition, the microarray was incubated with anti-HA antibody 12CA5 directly conjugated to DyLight-800. Microarrays were scanned using a LiCor scanner, and intensities of triplicates were averaged.

[2] = target: T2, biotinylated tau peptide, amino acid residues 199-213 of SEQ ID NO:3 (human, also: biotinylated, site not given here); test: peptide ELISA, epitope mapping of hybridoma positives
T2 construct: One of the overlapping peptides spanning 4R0N human tau
T2 peptide: KSKIGSTENLKHQPG
Method: (§1) Additional peptides were used to model potential post-translational modifications of the C- and N-terminal ends of the protein.
(§2) Biotinylated peptides were bound to separate wells of a streptavidin-coated ELISA plate. The plate was blocked and treated with murine 3D6, followed by incubation with a horseradish peroxidase-conjugated anti-mouse antibody. After thorough washing, OPD was applied to the plate and allowed to develop. The plate was read at 450 nm absorbance. Background subtraction was performed with absorbance values from wells containing no primary antibody, and a threshold for positive binding was set to 0.2 absorbance units. […] (FIG. 1)

[3] = target: T3, biotinylated tau peptide, amino acid residues 262-276 of SEQ ID NO:3 (human, also: biotinylated, site not given here); test: as above
T3 construct: One of the overlapping peptides spanning 4R0N human tau
T3 peptide: SKCGSLGNIHHKPGG
Method: as §1, §2

163-177 = target: T4, 163-177 (also: biotinylated, site not given here); test: peptide ELISA, biotinylated peptide on streptavidin plate; background-subtracted absorbance; positive from 0.2
T4 peptide: REPKKVAVVRTPPKS
Method: as §1, §2

recombinant human tau = target: T5, recombinant human tau (human, UniProt P10636-6 1-383, limits assumed); test: SPR (Biacore T200): antibody captured on an anti-mouse chip, recombinant human tau 10-0.14 nM as analyte, global 1:1 fit
T5 construct: also called human recombinant tau without polyhistidine tag; native, untagged protein
Method: Methods: SPR analysis was performed using a Biacore T200 to determine the binding kinetics of murine antibodies to recombinant human tau. To prepare a sensor surface, anti-mouse antibody (GE Life Sciences) was immobilized on sensor chip CM5 via amine coupling, and antibody was captured at a level to ensure maximum binding of 50 RU. Various concentrations of recombinant tau ranging from 10-0.14 nM were passed over the captured ligand at a flow rate of 50 μL/min in running buffer (HBS+0.05% P-20, 1 mg/mL BSA), for 180 sec association and 900 sec dissociation. Data were double-referenced to both an irrelevant sensor not containing antibody ligand, and 0 nM analyte concentration to account for the dissociation of ligand from the capture moiety. Data was then analyzed using a global 1:1 fit.

T5 sequence (P10636 other isoform, or with tags, fused parts or gaps limits assumed): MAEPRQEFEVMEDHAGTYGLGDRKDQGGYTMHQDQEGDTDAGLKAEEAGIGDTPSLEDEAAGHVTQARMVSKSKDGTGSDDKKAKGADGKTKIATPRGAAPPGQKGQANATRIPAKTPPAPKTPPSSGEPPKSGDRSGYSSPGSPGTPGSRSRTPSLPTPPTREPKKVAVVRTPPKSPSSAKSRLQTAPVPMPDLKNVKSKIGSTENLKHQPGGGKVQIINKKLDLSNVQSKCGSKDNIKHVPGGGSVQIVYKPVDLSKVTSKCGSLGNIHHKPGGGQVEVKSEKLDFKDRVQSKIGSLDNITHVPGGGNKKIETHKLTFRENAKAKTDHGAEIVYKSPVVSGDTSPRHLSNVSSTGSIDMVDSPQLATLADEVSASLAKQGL

binding result [1]: binds | binding result [2]: binds | binding result [3]: binds | binding result (163-177): no binding | Kd (recombinant human tau): 0.46 nM | koff (recombinant human tau): 0.00119 s⁻¹ | kon (recombinant human tau): 2.58e+06 M⁻¹ s⁻¹
B1: murine 3D6 monoclonal antibody (antibody, IgG1, V domains shown)
VH: EVQLQQSGADLVRPGALVKLSCKASGFNIKDYYLHWVRQRPEQGLEWIGWIDPENGDTVYDPKFQGKATITADTSSNTAYLQLGSLTSEDTAVYFCSTLDFWGQGTTLTVSS
VL: not shown
notes: Hybridoma-derived mouse antibody; also called m3D6; mouse 3D6

— patent US20200369755A1 (PROTHENA BIOSCIENCES, published 2020)
